Assay results as given in US20230192881A1 (EDESA BIOTECH RESEARCH, published 2023).
“And” between values parts separate entries of the source, which are not always exact repeats. Identical values can stand only once. Blank lines part the entries; values can stand above or below the binder they belong to.

Legend:
human TLR4 [1] = target: T1, human TLR4 (human, UniProt O00206 24-839); assay: KinExA
T1 construct: also called hTLR4; Toll-like Receptor 4

mouse TLR4 [2] = target: T2, mouse TLR4 (mouse, UniProt Q9QUK6 26-629, limits assumed); assay: method not stated, average Kd
T2 sequence (looked up): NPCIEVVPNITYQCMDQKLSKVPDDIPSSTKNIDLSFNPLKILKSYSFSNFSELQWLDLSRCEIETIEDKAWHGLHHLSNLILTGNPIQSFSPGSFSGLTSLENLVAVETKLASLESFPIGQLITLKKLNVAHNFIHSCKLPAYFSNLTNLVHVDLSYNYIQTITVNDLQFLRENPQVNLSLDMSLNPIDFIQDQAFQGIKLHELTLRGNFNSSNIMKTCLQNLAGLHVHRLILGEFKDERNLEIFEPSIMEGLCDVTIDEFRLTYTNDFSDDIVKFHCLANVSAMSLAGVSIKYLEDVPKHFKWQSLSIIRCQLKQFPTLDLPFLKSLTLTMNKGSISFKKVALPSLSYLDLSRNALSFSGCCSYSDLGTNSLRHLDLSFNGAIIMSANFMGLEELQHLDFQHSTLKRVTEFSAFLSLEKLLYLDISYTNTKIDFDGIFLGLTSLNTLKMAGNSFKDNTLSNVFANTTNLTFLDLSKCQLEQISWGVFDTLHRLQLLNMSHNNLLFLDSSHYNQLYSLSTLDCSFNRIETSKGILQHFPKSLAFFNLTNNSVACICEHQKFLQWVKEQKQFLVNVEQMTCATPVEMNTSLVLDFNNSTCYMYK

mouse FcγRI = target: T3, mouse FcγRI (mouse, UniProt P26151 25-297, limits assumed); assay: method not stated
T3 construct: also called mFcγRI; mouse FcyRI
T3 sequence (looked up): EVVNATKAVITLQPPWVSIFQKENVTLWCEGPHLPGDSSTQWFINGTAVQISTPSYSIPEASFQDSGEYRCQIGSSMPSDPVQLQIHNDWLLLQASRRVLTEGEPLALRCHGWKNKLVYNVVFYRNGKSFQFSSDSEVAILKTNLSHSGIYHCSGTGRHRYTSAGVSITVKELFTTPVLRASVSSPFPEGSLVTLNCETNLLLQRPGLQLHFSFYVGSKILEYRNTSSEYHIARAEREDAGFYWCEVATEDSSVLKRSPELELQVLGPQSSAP

mouse FcRn = target: T4, mouse FcRn (mouse, UniProt Q61559 22-297; P01887 21-119, limits assumed); assay: method not stated
T4 construct: also called mFcRn
T4 sequence (looked up) 1: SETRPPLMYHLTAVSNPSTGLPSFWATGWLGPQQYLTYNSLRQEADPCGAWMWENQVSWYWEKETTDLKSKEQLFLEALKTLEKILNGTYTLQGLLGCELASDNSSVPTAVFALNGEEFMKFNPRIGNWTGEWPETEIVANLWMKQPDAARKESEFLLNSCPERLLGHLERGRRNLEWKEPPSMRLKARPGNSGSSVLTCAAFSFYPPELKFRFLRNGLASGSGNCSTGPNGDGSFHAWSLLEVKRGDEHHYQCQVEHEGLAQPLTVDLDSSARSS
T4 sequence (looked up) 2: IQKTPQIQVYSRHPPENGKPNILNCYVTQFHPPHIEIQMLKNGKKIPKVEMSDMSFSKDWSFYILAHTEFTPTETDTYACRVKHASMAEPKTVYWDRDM

mouse FcγRIII = target: T5, mouse FcγRIII (mouse, UniProt P08508 31-215, limits assumed); assay: method not stated
T5 construct: also called mFcγRIII
T5 sequence (looked up): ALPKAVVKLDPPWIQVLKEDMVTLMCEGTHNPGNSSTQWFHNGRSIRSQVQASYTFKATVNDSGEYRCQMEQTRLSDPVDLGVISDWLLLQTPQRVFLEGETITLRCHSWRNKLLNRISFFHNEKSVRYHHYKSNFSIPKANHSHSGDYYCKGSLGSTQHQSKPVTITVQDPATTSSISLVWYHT

mouse FcγRII = target: T6, mouse FcγRII (mouse, UniProt P08101 30-210, limits assumed); assay: method not stated
T6 construct: also called mFcγRII; mouse FcyRII
T6 sequence (looked up): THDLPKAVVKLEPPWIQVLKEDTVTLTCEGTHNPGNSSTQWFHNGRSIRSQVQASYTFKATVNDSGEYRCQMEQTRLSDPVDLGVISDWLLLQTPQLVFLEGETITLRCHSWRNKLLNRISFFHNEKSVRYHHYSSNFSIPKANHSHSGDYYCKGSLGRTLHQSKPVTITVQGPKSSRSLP

mouse FcγRIV = target: T7, mouse FcγRIV (mouse, UniProt A0A0B4J1G0 21-203); assay: method not stated
T7 construct: also called mFcγRIV
T7 sequence: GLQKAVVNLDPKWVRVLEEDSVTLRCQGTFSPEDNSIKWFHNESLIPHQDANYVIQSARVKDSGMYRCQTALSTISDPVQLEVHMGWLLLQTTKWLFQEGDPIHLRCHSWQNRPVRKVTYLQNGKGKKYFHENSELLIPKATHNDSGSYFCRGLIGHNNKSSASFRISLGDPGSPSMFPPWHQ

mouse TLR4 [3] = target: T2, mouse TLR4; assay: cell-based or functional assay
human TLR4 [4] = target: T1, human TLR4; assay: KinExA combined with ELISA, average Kd
human FcγRIIa 131R [5] = target: T8, human FcγRIIa 131R (human, UniProt P12318 36-218, limits assumed); assay: surface plasmon resonance (refers to Table 9)
T8 sequence (looked up): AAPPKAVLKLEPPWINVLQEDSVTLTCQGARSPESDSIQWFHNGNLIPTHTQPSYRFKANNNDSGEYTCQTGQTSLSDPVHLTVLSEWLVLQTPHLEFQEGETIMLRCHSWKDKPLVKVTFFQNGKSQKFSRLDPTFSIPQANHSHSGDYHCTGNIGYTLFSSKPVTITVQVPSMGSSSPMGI

human FcγRI = target: T9, human FcγRI (human, UniProt P12314 16-288, limits assumed); assay: surface plasmon resonance
T9 construct: also called CD64; FcyRI
T9 sequence (P12314 16-288 limits assumed): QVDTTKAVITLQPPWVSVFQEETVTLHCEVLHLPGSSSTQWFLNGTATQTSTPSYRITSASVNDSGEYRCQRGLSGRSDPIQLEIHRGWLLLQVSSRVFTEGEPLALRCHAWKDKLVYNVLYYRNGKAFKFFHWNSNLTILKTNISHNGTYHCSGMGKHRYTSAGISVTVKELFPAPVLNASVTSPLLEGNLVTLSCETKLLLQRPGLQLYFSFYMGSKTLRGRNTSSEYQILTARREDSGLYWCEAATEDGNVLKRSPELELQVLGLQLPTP

human FcγRIIb = target: T10, human FcγRIIb (human, UniProt P31994 43-217, limits assumed); assay: surface plasmon resonance
T10 construct: also called CD32b
T10 sequence (looked up): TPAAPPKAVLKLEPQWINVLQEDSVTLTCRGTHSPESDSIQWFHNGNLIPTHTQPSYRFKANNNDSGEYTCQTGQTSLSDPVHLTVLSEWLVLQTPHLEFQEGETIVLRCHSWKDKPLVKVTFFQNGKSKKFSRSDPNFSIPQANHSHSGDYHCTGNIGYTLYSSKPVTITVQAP

human FcγRIIa 131R [6] = target: T8, human FcγRIIa 131R; assay: surface plasmon resonance
human FcγRIIa 131H = target: T11, human FcγRIIa 131H (human, UniProt P12318 36-218, limits assumed); assay: surface plasmon resonance
T11 sequence (looked up): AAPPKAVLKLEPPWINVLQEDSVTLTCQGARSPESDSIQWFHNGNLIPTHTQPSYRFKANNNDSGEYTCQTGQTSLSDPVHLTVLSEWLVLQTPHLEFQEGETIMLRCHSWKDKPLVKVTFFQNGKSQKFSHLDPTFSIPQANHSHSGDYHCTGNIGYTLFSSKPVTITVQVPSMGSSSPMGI

human TLR4 [7] = target: T1, human TLR4; assay: cell-based or functional assay
human TLR4 [8] = target: T1, human TLR4; assay: cell-based or functional assay; remark: listed apart in the source

T1 sequence (O00206 24-839 limits assumed): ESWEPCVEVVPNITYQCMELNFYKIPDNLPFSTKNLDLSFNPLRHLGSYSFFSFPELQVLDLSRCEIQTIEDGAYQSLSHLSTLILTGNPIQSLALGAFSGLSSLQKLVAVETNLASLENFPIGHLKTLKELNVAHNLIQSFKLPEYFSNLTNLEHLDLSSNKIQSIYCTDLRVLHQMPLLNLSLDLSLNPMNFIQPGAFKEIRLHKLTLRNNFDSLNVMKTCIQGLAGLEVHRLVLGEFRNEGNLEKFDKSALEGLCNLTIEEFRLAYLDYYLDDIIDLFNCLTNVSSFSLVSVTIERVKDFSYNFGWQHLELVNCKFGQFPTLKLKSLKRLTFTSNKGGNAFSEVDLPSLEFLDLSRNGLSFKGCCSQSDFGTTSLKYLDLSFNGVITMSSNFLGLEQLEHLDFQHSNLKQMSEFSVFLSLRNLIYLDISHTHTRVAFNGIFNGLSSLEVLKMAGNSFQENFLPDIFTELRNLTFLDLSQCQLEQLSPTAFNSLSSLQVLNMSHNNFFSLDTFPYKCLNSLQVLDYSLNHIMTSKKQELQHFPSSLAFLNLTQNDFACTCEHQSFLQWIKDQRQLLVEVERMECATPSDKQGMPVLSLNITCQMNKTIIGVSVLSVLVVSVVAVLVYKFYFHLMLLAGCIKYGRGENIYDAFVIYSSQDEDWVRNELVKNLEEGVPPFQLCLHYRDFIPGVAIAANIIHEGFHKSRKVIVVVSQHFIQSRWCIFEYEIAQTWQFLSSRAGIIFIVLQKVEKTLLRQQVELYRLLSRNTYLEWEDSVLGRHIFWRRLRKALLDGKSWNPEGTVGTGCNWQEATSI

Kd (human TLR4 [1]): 0.139 nM
B1: Hu 15C1 (antibody, V domains shown)
VH: QVQLQESGPGLVKPSDTLSLTCAVSGYSITGGYSWHWIRQPPGKGLEWMGYIHYSGYTDFNPSLKTRITISRDTSKNQFSLKLSSVTAVDTAVYYCARKDPSDAFPYWGQGTLVTVSS
VL: EIVLTQSPDFQSVTPKEKVTITCRASQSISDHLHWYQQKPDQSPKLLIKYASHAISGVPSRFSGSGSGTDFTLTINSLEAEDAATYYCQQGHSFPLTFGGGTKVEIK
notes: the rest is a non-mutated human IgG1 Fc

Kd (mouse TLR4 [2]): 0.027 nM
Kd (mouse FcγRI): 50.8 nM
Kd (mouse FcRn): 2.93 nM
Kd (mouse FcγRIII): 505 nM
Kd (mouse FcγRII): 3260 nM
Kd (mouse FcγRIV): 113 nM
IC50, Blockade of LPS induced TLR4 signalling, mouse whole blood (mouse TLR4 [3]): 1.16 nM and 173 ng/mL
B2: 5E3 (antibody, mouse IgG2a, kappa)
heavy: QIQLVQSGPELKKPGESVKISCKASGYTFTDYVMYWVKQAPGKGLKWMGWINTNTGKPTYADDFKGRFVFSLEASASTANLQISNLKNEDTATYFCTRGNYPGLRVMDAWGQGASVTVSSAKTTAPSVYPLAPVCGDTTGSSVTLGCLVKGYFPEPVTLTWNSGSLSSGVHTFPAVLQSDLYTLSSSVTVTSSTWPSQSITCNVAHPASSTKVDKKIEPRGPTIKPCPPCKCPAPNLLGGPSVFIFPPKIKDVLMISLSPIVTCVVVDVSEDDPDVQISWFVNNVEVHTAQTQTHREDYNSTLRVVSALPIQHQDWMSGKEFKCKVNNKDLPAPIERTISKPKGSVRAPQVYVLPPPEEEMTKKQVTLTCMVTDFMPEDIYVEWTNNGKTELNYKNTEPVLDSDGSYFMYSKLRVEKKNWVERNSYSCSVVHEGLHNHHTTKSFSRTPGK
light: DIQMTQSPSSMSVSLGDTVTITCRASQDVGIYVNWFQQKPGKSPRRLIFRATNLADGVPSRFSGSRSGSDYSLTISSLGSEDVAGYHCLQYDEYPLTFGSGTKLEIKRADAAPTVSIFPPSSEQLTSGGASVVCFLNNFYPKDINVKWKIDGSERQNGVLNSWTDQDSKDSTYSMSSTLTLTKDEYERHNSYTCEATHKTSTSPIVKSFNRNEC
notes: Chimeric anti-mouse TLR4 mAb: rat variable regions grafted onto a mouse IgG2a kappa Fc

Kd (human TLR4 [4]): 0.139 nM
fold higher affinity than to the 131H variant (human FcγRIIa 131R [5]): 2 fold
Kd (human FcγRI): 47.3 nM
Kd (human FcγRIIb): 870 nM
Kd (human FcγRIIa 131R [6]): 151 nM
Kd (human FcγRIIa 131H): 311 nM
IC50, Blockade of LPS induced TLR4 signalling, human whole blood (FcγRIIaHH) (human TLR4 [7]): 2.19 nM and 324 ng/mL
IC50, LPS mediated cytokine production in human primary macrophages (human TLR4 [8]): 0.0104 nM
IC50, LPS-induced IL-6 release in THP1 cells (FcγRIIa 131HH) (human TLR4 [8]): 0.0027 nM
IC50, LPS-induced IL-6 release in U937 cells (FcγRIIa 131RR) (human TLR4 [8]): 0.002 nM
IC50, LPS-induced IL-6 release in human whole blood, FcγRIIa 131HH donors (human TLR4 [8]): 2.19 nM
IC50, LPS-induced IL-6 release in human whole blood, FcγRIIa 131RH donors (human TLR4 [8]): 0.223 nM
IC50, LPS-induced IL-6 release in human whole blood, FcγRIIa 131RR donors (human TLR4 [8]): 0.128 nM
IC50, Tenascin-C mediated cytokine production in human primary macrophages (human TLR4 [8]): 0.022 nM
IC50, nickel mediated cytokine production in human primary macrophages (human TLR4 [8]): 0.015 nM
B3: NI-0101 (antibody, human IgG1, kappa)
heavy: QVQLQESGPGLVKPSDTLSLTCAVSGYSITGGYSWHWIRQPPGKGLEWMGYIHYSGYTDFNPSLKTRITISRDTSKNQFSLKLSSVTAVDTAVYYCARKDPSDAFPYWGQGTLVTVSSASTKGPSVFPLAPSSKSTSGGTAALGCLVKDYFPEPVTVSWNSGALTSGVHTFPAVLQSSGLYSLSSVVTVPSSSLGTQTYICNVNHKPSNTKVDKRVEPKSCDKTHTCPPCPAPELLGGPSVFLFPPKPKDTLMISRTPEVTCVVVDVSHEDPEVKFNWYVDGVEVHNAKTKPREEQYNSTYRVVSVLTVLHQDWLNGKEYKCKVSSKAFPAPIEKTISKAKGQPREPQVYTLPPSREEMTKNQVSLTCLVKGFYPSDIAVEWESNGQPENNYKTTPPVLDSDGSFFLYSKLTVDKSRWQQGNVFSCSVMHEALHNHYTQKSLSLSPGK
light: EIVLTQSPDFQSVTPKEKVTITCRASQSISDHLHWYQQKPDQSPKLLIKYASHAISGVPSRFSGSGSGTDFTLTINSLEAEDAATYYCQQGHSFPLTFGGGTKVEIKRTVAAPSVFIFPPSDEQLKSGTASVVCLLNNFYPREAKVQWKVDNALQSGNSQESVTEQDSKDSTYSLSSTLTLSKADYEKHKVYACEVTHQGLSSPVTKSFNRGEC
